Measured values as given in US20160208005A1 (Astellas, published 2016).

What was measured:
[1] = biological target: T1, human TSLP receptor-mouse Fc fusion protein (human (receptor part), mouse (Fc part)); experiment: SPR (Biacore 2000), antibody captured, human TSLP receptor-mouse Fc as analyte; reference TSLPR-012_141
T1 construct: Expressed in FreeStyle 293 cells and purified on Protein G; also called fusion protein of human TSLP receptor and mouse Fc
T1 chain: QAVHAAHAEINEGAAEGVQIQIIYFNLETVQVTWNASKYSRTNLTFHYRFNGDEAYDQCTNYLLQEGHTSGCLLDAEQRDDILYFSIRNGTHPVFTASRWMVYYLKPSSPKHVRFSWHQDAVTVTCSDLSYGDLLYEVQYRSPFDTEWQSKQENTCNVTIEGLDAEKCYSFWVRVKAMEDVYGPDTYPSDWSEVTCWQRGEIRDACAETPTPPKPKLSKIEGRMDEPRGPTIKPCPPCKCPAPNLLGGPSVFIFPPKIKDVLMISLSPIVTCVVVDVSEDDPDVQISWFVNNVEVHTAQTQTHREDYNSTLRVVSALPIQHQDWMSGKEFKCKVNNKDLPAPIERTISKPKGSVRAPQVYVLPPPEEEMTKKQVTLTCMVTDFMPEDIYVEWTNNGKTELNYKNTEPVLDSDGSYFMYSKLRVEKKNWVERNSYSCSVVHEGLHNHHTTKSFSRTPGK
Description: (§1) In the SPR analysis, the analysis was performed using Biacore (registered trademark) 2000 (GE Healthcare Japan Corporation). Respective anti-human TSLP receptor antibodies were immobilized on the surface of a sensor chip CM5 using a Human Antibody Capture Kit and an Amine Coupling Kit (GE Healthcare Japan Corporation). The human TSLP receptor-mouse Fc fusion protein obtained in Example 1 was serially diluted with an HBS-EP solution (GE Healthcare Japan Corporation), and 100 μL of the solution was added to the flow path at a flow rate of 50 μL/min. By this measurement system, binding rate constant (ka), dissociation rate constant (kd), and dissociation constant (KD) of the human TSLP receptor-mouse Fc fusion protein and the anti-human TSLP receptor antibody were calculated using data analysis software (BIA Evaluation) (Table 1).

human TSLP receptor [2] = biological target: T2, human TSLP receptor (human, UniProt Q9HC73 23-371); experiment: cell-based or functional assay
T2 sequence (looked up): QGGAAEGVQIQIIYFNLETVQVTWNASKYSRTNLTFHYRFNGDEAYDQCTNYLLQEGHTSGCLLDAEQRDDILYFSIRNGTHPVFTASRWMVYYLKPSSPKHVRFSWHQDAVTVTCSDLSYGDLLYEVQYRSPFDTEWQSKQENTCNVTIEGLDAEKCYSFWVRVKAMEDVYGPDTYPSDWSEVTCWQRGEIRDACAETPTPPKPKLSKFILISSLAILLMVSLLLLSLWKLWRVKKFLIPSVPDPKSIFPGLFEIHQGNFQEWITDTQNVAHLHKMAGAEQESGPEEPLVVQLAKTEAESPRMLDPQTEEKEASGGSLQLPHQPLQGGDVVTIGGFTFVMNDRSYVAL

human TSLP receptor [3] = biological target: T2, human TSLP receptor; experiment: cell-based or functional assay; remark: listed apart in the source
[4] = biological target: T1, human TSLP receptor-mouse Fc fusion …; experiment: SPR (Biacore 2000), antibody captured on CM5 chip by Human Antibody Capture Kit, human TSLP receptor-mouse Fc as analyte
Description: as §1

fold binding activity compared to TSLPR-012_141 [1]: ~3 fold
fold inhibition activity against TSLP-induced MDC proteins production compared to TSLPR-012_141 (human TSLP receptor [2]): ~9 fold
fold inhibition activity against human TSLP-induced TARC mRNA expression compared to TSLPR-012_141 (human TSLP receptor [2]): ~12 fold
IC50 (ng/mL); TSLP-induced MDC proteins production inhibition using human PBMC (5 ng/mL human TSLP mutant-Flag protein) (human TSLP receptor [3]): 0.12 ng/mL
Kd [4]: 4.1 nM
koff [4]: 0.000125 s⁻¹
B1: fully human T7-27 (antibody, human IgG1, kappa, V domains shown)
VH: EVQLLESGGGLVQPGGSLRLSCAASGFTFRSSAMHWVRQAPGKGLKWVSSVSGSGAGTYYADSVKGRFTISRDNPKNTLYLQMNSLRAEDTAVYYCVKEGGSRGFDYWGQGTLVTVSS
VL: DIQMTQSPSSLSASVGDRVTITCRASQDISNYLAWFQQKPGKAPKSLIYTASSLQSGVPSKFSGSGSGTDFTLTISSLQPEDFATYYCQQYNLYPPTFGQGTKVEIKR
modifications: deletion of lysine of the heavy chain C terminal occurred in a large part of the purified antibody
notes: Human IgG1/kappa; Expressed in FreeStyle 293 or CHO-K1SV cells; also called fully human antibody of T7-27
